Laboratory results: paper PMC7111318
pKd: −log10 of the molar value.

Target: Echo 6 virus full particle (strain SJZ-366) (Echovirus 6 strain SJZ-366)
Assay: SPR

For “Human FcRn soluble protein (FCGRT extracellular domain + β2 m) (from UniProt P61769 21-119) (complex)”, the pKd was 6.62.

“Human CD55 soluble protein (extracellular domain) (from UniProt P08174-1 35-285) (domain or fragment)” showed a pKd of 6.43.
